Target: the molecule itself
Test: crystal structure; space group P2(1)3, one molecule in the asymmetric unit, trimer built by crystallographic three-fold symmetry; 3.5 Å dataset, molecular replacement with PDB 4TJV

B1: luminal domain of vacuolar sorting receptor 1 (VSR1) from Arabidopsis thaliana, residues 1 to 560 (domain or fragment, UniProt P93026 23-560, looked up)
chain: VEKNNLKVTSPDSIKGIYECAIGNFGVPQYGGTLVGTVVYPKSNQKACKSYSDFDISFKSKPGRLPTFVLIDRGDCYFTLKAWIAQQAGAAAILVADSKAEPLITMDTPEEDKSDADYLQNITIPSALITKTLGDSIKSALSGGDMVNMKLDWTESVPHPDERVEYELWTNSNDECGKKCDTQIEFLKNFKGAAQILEKGGHTQFTPHYITWYCPEAFTLSKQCKSQCINHGRYCAPDPEQDFTKGYDGKDVVVQNLRQACVYRVMNDTGKPWVWWDYVTDFAIRCPMKEKKYTKECADGIIKSLGIDLKKVDKCIGDPEADVENPVLKAEQESQIGKGSRGDVTILPTLVVNNRQYRGKLEKGAVLKAMCSGFQESTEPAICLTEDLETNECLENNGGCWQDKAANITACRDTFRGRLCECPTVQGVKFVGDGYTHCKASGALHCGINNGGCWRESRGGFTYSACVDDHSKDCKCPLGFKGDGVKNCEDVDECKEKTVCQCPECKCKNTWGSYECSCSNGLLYMREHDTCIGSGKVG
modifications: N-glycosylation at Asn289 (two N-acetylglucosamine)
notes: signal peptide in the construct; vacuolar sorting receptor 1 (VSR1), Arabidopsis thaliana, luminal part, residues 1 to 560; the model of the structure runs from Phe21 to Ala465 (Ser120-Asp137 disordered); Trimer by crystallographic three-fold symmetry; one molecule in the asymmetric unit; also called AtVSR1; full-length VSR1 luminal domain
stoichiometry N: 3
